Test results reported in US20030148956A1 (PROCTER AND GAMBLE, published 2003).
Ends that are not written are not given here.

T1: CRF2R
T1 sequence (Q13324 whole entry, species assumed, looked up): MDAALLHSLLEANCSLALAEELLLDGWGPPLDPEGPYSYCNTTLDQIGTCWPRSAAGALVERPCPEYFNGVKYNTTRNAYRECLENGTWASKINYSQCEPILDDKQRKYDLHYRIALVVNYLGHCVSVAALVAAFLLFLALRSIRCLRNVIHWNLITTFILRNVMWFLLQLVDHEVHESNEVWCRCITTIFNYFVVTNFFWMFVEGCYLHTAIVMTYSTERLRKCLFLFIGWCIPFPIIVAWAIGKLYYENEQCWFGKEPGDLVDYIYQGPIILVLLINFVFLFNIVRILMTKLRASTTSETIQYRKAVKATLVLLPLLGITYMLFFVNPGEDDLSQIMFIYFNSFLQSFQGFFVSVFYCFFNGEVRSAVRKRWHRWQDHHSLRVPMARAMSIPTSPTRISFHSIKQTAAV


target: T1, CRF2R; assay: cell-based or functional assay

| Binder | CRF2R EC50 [nM] | CRF2R Emax [%] |
| --- | --- | --- |
| ZGPPISIDLPHWLLRKMIEIEKQEKEKQQAANNRLLLDTI (C-terminal amide) [SEQ ID NO 186] | 25.1 | 100 |
| ZGPPISIDLPFILLRKMIEIEKQEKEKQQAANNRLLLDTI (C-terminal amide) [SEQ ID NO 189] | 7 | 96 |
| ZGPPISIDLPLLLLRKMIEIEKQEKEKQQAANNRLLLDTI (C-terminal amide) [SEQ ID NO 188] | 14.6 | 100 |
| ZGPPISIDLPWFLLRKMIEIEKQEKEKQQAANNRLLLDTI (C-terminal amide) [SEQ ID NO 187] | 10.3 | 100 |
| ZGPPISIDLPFQLLRKMIEIEKQEKEKQQATTNRLLLARV (C-terminal amide) [SEQ ID NO 19] | 7.42 | 75 |
| ZGPPISIDLPFQLLRKMIEIEKQEKEKQQATTNARLLDTV (C-terminal amide) [SEQ ID NO 20] | 7.81 | 99 |
| DNPSLSIDLPFFLLRTLLELARTQSQRERAEQNAIIFASV-NH2 [SEQ ID NO 184] | 3.72 | 96.5 |
| DNPSLSIDLPFHLLRTLLELARTQSQRERAEQNAIIFASV-NH2 [SEQ ID NO 185] | 8.98 | 100 |
| DNPSLSIDLPFYLLRTLLELARTQSQRERAEQNAIIFASV-NH2 [SEQ ID NO 183] | 7.93 | 100 |

The remaining lines, values ahead:

| CRF2R EC50 [nM] | CRF2R Emax [%] | Binder |
| --- | --- | --- |
| 10.1 | 97 | ZGPPISIDLPLVLLRKMIEIEKQEKEKQQAANNRLLLDTI (C-terminal amide) [SEQ ID NO 193] |
| 8.3 | 100 | ZGPPISIDLPFLLLRKMIEIEKQEKEKQQAANNRLLLDTI (C-terminal amide) [SEQ ID NO 191] |
| 18.8 | – | ZGPPISIDLPLFLLRKMIEIEKQEKEKQQAANNRLLLDTI (C-terminal amide) [SEQ ID NO 195] |
| 27.7 | 97 | ZGPPISIDLPQLLLRKMIEIEKQEKEKQQAANNRLLLDTI (C-terminal amide) [SEQ ID NO 196] |
| 39.6 | 31 | ZGPPISIDLPFVLLRKMIEIEKQEKEKQQAANNRLLLDTI (C-terminal amide) [SEQ ID NO 190] |
| 5 | 96 | ZGPPISIDLPLILLRKMIEIEKQEKEKQQAANNRLLLDTI (C-terminal amide) [SEQ ID NO 194] |
| 66.8 | 97 | ZGPPISIDLPIWLLRKMIEIEKQEKEKQQAANNRLLLDTI (C-terminal amide) [SEQ ID NO 192] |

target: CRF1R; assay: cell-based or functional assay

| Binder | CRF1R EC50 [nM] | CRF1R Emax [%] |
| --- | --- | --- |
| ZGPPISIDLPHWLLRKMIEIEKQEKEKQQAANNRLLLDTI (C-terminal amide) [SEQ ID NO 186] | 323 | 100 |
| ZGPPISIDLPFILLRKMIEIEKQEKEKQQAANNRLLLDTI (C-terminal amide) [SEQ ID NO 189] | 62.2 | 57 |
| ZGPPISIDLPLLLLRKMIEIEKQEKEKQQAANNRLLLDTI (C-terminal amide) [SEQ ID NO 188] | 162 | 96 |
| ZGPPISIDLPWFLLRKMIEIEKQEKEKQQAANNRLLLDTI (C-terminal amide) [SEQ ID NO 187] | 31.6 | 72 |
| ZGPPISIDLPFQLLRKMIEIEKQEKEKQQATTNRLLLARV (C-terminal amide) [SEQ ID NO 19] | 232 | 83 |
| ZGPPISIDLPFQLLRKMIEIEKQEKEKQQATTNARLLDTV (C-terminal amide) [SEQ ID NO 20] | 906 | 60 |
| DNPSLSIDLPFFLLRTLLELARTQSQRERAEQNAIIFASV-NH2 [SEQ ID NO 184] | 486 | 77.3 |
| DNPSLSIDLPFHLLRTLLELARTQSQRERAEQNAIIFASV-NH2 [SEQ ID NO 185] | 358 | 95.8 |
| DNPSLSIDLPFYLLRTLLELARTQSQRERAEQNAIIFASV-NH2 [SEQ ID NO 183] | 415 | 57.5 |

Now from value to binder:

| CRF1R EC50 [nM] | CRF1R Emax [%] | Binder |
| --- | --- | --- |
| 266 | 95 | ZGPPISIDLPLVLLRKMIEIEKQEKEKQQAANNRLLLDTI (C-terminal amide) [SEQ ID NO 193] |
| 63.7 | 65 | ZGPPISIDLPFLLLRKMIEIEKQEKEKQQAANNRLLLDTI (C-terminal amide) [SEQ ID NO 191] |
| 103 | 93 | ZGPPISIDLPLFLLRKMIEIEKQEKEKQQAANNRLLLDTI (C-terminal amide) [SEQ ID NO 195] |
| 447 | 96 | ZGPPISIDLPQLLLRKMIEIEKQEKEKQQAANNRLLLDTI (C-terminal amide) [SEQ ID NO 196] |
| > 100 | 9 | ZGPPISIDLPFVLLRKMIEIEKQEKEKQQAANNRLLLDTI (C-terminal amide) [SEQ ID NO 190] |
| 106 | 94 | ZGPPISIDLPLILLRKMIEIEKQEKEKQQAANNRLLLDTI (C-terminal amide) [SEQ ID NO 194] |
| 562 | 99 | ZGPPISIDLPIWLLRKMIEIEKQEKEKQQAANNRLLLDTI (C-terminal amide) [SEQ ID NO 192] |
